In patent US20220177587A1, “METHODS AND USES OF VARIANT CD80 FUSION PROTEINS AND RELATED CONSTRUCTS” (Alpine Immune Sciences, Inc., priority 2018, published 2022):
Substitutions are numbered along the chain they refer to. In names and notes the source's numbering stands. Values belong to the molecule of their own block, whether it stands above or below them.

What was measured:
CD28 = CD28 (Homo sapiens, UniProt P10747); assay: Jurkat/IL2 + CHO/OKT3 +/- PD-L1 reporter assay: PD-L1-dependent CD28 costimulation; type: cell-based; design: host or cells: Jurkat cells expressing an IL-2-luciferase reporter; settings: Jurkat/IL2 + CHO/OKT3/PD-L1
Description: Jurkat cells were then plated at 50 μL/well for a total of 100,000 cells per well.
To each well, 25 μL of test protein was added to the Jurkat cells. […] The Jurkat cells with test or control proteins were incubated for 15 minutes at room temperature. CHO-derived artificial antigen presenting cells (aAPC) displaying transduced cell surface anti-CD3 single chain Fv (OKT3) (i.e., no PD-L1), or OKT3 and PD-L1 (i.e., +PD-L1), were brought to 0.8×10^6 cells/mL, and 25 μL of cells were added to each well, bringing the final volume of each well to 100 μL. […] Jurkat cells and CHO cells were incubated for 5 hours at 37 degrees Celsius in a humidified 5% CO2 incubation chamber. Plates were then removed from the incubator and acclimated to room temperature for 15 minutes. 100 μL of a cell lysis and luciferase substrate solution (BioGlo luciferase reagent, Promega) were added to each well and the plates were incubated on an orbital shaker for 10 minutes. Luminescence was measured with a 1 second per well integration time using a BioTek Cytation luminometer, and a relative luminescence value (RLU) was determined for each test sample.

huCTLA4 = huCTLA4 (Homo sapiens, UniProt P16410); assay: Flow binding to CHO cells stably expressing CTLA4; design: huCTLA4 and huPD-L1, full-length mammalian surface expression constructs were generated; expressed in transfected cells; host or cells: CHO cells, lentiviral transduction, sorted to >98% purity; settings: CHO cells stably expressing CTLA4
huCTLA4, sequence (P16410 36-223): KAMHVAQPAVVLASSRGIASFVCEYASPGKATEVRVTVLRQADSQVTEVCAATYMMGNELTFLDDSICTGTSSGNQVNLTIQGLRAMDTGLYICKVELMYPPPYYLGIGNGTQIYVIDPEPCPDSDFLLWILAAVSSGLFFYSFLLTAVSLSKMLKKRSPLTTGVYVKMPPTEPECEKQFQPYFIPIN
Description: (§1) Binding of selected immunomodulatory fusion proteins to cognate binding partners was assessed. […] Cells were sorted in a Bio-Rad S3 Cell Sorter (Bio-Rad Corp., USA) to >98% purity. Jurkat/IL2 reporter cells, which endogenously express CD28, were used to detect binding to CD28.
(§2) For staining and analysis by flow cytometry, 100,000 cells of appropriate transfected cells were plated in 96-well round bottom plates. Cells were spun down and resuspended in staining buffer (phosphate buffered saline (PBS), 1% bovine serum albumin (BSA), and 0.1% sodium azide) for 20 minutes to block non-specific binding. […] Primary staining was performed on ice for 45 minutes, before washing cells in staining buffer twice. Phycoerythrin (PE)-conjugated anti-human Fc (Jackson ImmunoResearch, USA) was diluted 1:150, added to cells and incubated another 30 minutes on ice. Cells were then washed twice with 150 μL/well stain buffer, fixed in 2% formaldehyde/PBS, and analyzed on Intellicyt flow cytometer (Intellicyt Corp., USA). PE Mean Fluorescence Intensity (MFI) was calculated for each cell type with FlowJo Version 10 software (FlowJo LLC, USA).
(§3) Binding assays were carried out to assess the specificity and affinity of multivalent proteins to cell-expressed CTLA-4, CD28, and PD-L1 counter structures.
(§4) The EC50 for binding also was determined.

huPD-L1 = huPD-L1 (Homo sapiens, UniProt Q9NZQ7); assay: Flow binding to CHO cells stably expressing PD-L1; design: huCTLA4 and huPD-L1, full-length mammalian surface expression constructs were generated; expressed in transfected cells; host or cells: CHO cells, lentiviral transduction, sorted to >98% purity; settings: CHO cells stably expressing PD-L1
huPD-L1, sequence (Q9NZQ7 19-290): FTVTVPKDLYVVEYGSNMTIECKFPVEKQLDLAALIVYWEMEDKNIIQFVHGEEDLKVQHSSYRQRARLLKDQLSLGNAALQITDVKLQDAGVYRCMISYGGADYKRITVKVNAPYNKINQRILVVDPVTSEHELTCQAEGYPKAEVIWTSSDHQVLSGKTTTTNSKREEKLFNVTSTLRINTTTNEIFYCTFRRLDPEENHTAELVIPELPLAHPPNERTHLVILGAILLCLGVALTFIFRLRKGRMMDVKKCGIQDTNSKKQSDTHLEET
Description: as §1, §2, §3, §4

B1: H18Y/E35D/V68M/A71G/R94Q/E95V (protein, UniProt P33681 35-288, looked up, variant H18Y E35D V68M A71G R94Q E95V)
T-lymphocyte activation …: VIHVTKEVKEVATLSCGYNVSVEELAQTRIYWQKDKKMVLTMMSGDMNIWPEYKNRTIFDITNNLSIMILGLRPSDEGTYECVVLKYEKDAFKQVHLAEVTLSVKADFPTPSISDFEIPTSNIRRIICSTSGGFPEPHLSWLENGEELNAINTTVSQDPETELYAVSSKLDFNMTTNHSFMCLIKYGHLRVNQTFNWNTTKQEHFPDNLLPSWAITLISVNGIFVICCLTYCFAPRCRERRRNERLRRESVRPV
modifications: Fc fusion
- Relative Luciferase Units (RLU), CD80 Cone 5.0 nM (CD28; Table E13, 5.0 nM): 183 RLU
- Relative Luciferase Units (RLU), CD80 Cone 5.0 nM (CD28; Table E17, consensus variants, 5.0 nM): 1968 RLU
- CTLA4 MFI at 33.3 nM (huCTLA4; Table E11, 33.3 nM): 18281
- CTLA4 MFI at 33.3 nM (huCTLA4; Table E16, consensus variants, 33.3 nM): 19396

B2: T13R/E35D/M47L/V68M (protein, UniProt P33681 35-288, looked up, variant T13R E35D M47L V68M)
T-lymphocyte activation …: B1 T-lymphocyte activation … with T13R, Y18H, M47L, G71A, Q94R, V95E
- Fold Increase over WT CD80-IgV-Fe (CD28; Table E13, 5.0 nM): 2.6
- Relative Luciferase Units (RLU), CD80 Cone 5.0 nM (CD28; Table E13, 5.0 nM): 1021 RLU

B4: E35D/D46E/M47L/V68M/A71G/Y87C/K93R (protein, UniProt P33681 35-288, looked up, variant E35D D46E M47L V68M A71G Y87C K93R)
T-lymphocyte activation …: B1 T-lymphocyte activation … with Y18H, D46E, M47L, Y87C, K93R, Q94R, V95E
- Relative Luciferase Units (RLU), CD80 Cone 5.0 nM (CD28; Table E13, 5.0 nM): 1198 RLU

B5: H18V/A26N/E35D/M47V/V68M/A71G (protein, UniProt P33681 35-288, looked up, variant H18V A26N E35D M47V V68M A71G)
T-lymphocyte activation …: B1 T-lymphocyte activation … with Y18V, A26N, M47V, Q94R, V95E
- Relative Luciferase Units (RLU), CD80 Conc 5.0 nM (CD28; Table E24, 5.0 nM): 985 RLU
- PD-L1 MFI at 33.3 nM (huPD-L1; Table E23, CD80 IgV-Fc (inert) at 33.3 nM): 68165

B6: V22D/E24D/E35D/M47L/V68M/L85M/D90G (protein)
chain: VIHVTKEVKEVATLSCGHNVSDEDLAQTRIYWQKDKKMVLTMMSGDLNIWPEYKNRTIFDITNNLSIMILALRPSDEGTYECVVMKYEKGAFKREHLAEVTLSVKADFPTPSISDFETPTSNIRRIICSTSGGFPEPHLSWLENGEELNAINTTVSQDPETELYAVSSKLDFNMTTNHSFMCLIKYGHLRVNQTFNWNTTKQEHFPDN
modifications: CD80 v384 ECD
- Relative Luciferase Units (RLU), CD80 Cone 5.0 nM (CD28; Table E13, 5.0 nM): 963 RLU
- PD-L1 MFI at 33.3 nM (huPD-L1; Table E11, 33.3 nM): 19047

B13: H18Y/E35D/M47L/A71G (protein)
chain: VIHVTKEVKEVATLSCGYNVSVEELAQTRIYWQKDKKMVLTMMSGDLNIWPEYKNRTIFDITNNLSIVILGLRPSDEGTYECVVLKYEKDAFKREHLAEVTLSVKAD
- Relative Luciferase Units (RLU), CD80 Conc 5.0 nM (CD28; Table E22, CD80 Conc 5.0 nM): 1387 RLU

B16: H18Y/E35D/M47V/N48K (protein)
chain: B13 chain with L47V, N48K, G71A
- Relative Luciferase Units (RLU), CD80 Cone 5.0 nM (CD28; Table E12, 5.0 nM): 2146 RLU
- PD-L1 MFI at 33.3 nM (huPD-L1; Table E10, 33.3 nM): 6462

B17: T13R/Q27L/Q33L/E35D/T41S/M47V/N48KN68M/L85M (protein)
chain: B13 chain with T13R, Y18H, Q27L, Q33L, T41S, L47V, N48K, V68M, G71A, L85M
- Fold Increase over WT CD80-IgV-Fe (CD28; Table E13, 5.0 nM): 0.4
- Relative Luciferase Units (RLU), CD80 Cone 5.0 nM (CD28; Table E13, 5.0 nM): 170 RLU

B18: H18Y/A26P/E35D/M47T/V68M/A71G (protein)
chain: B13 chain with A26P, L47I, V68M
- Fold Increase over WT CD80-IgV-Fe (CD28; Table E24, 5.0 nM): 4.5
- Relative Luciferase Units (RLU), CD80 Conc 5.0 nM (CD28; Table E24, 5.0 nM): 761 RLU

B19: H18Y/M47L/V68M/A71G (protein)
chain: B13 chain with D35E, V68M
- PD-L1 MFI at 33.3 nM (huPD-L1; Table E20, 33.3 nM): 28478

Second part, the molecule after the results:

- Fold Increase over WT CD80-IgV-Fe (CD28; Table E13, 5.0 nM): 3.0
- Relative Luciferase Units (RLU), CD80 Cone 5.0 nM (CD28; Table E13, 5.0 nM): 1203 RLU
B3: E35D/M47V/N48K/V68M/L85M (protein, UniProt P33681 35-288, looked up, variant E35D M47V N48K V68M L85M)
T-lymphocyte activation …: B1 T-lymphocyte activation … with Y18H, M47V, N48K, G71A, L85M, Q94R, V95E

- CTLA4 MFI at 33.3 nM (huCTLA4; Table E4, 33.3 nM variant CD80 IgV-Fc): 203938
B7: E35D/M38I/M43V/M47V/N48R/L85Q (protein)
chain: B13 chain with Y18H, M38T, M43V, L47V, N48R, G71A, L85Q

- Relative Luciferase Units (RLU), CD80 Conc 5.0 nM (CD28; Table E21, CD80 Conc 5.0 nM): 654 RLU
B8: D46V/M47L/V68M/L85Q (protein)
chain: B13 chain with Y18H, D35E, D46V, V68M, G71A, L85Q

- Relative Luciferase Units (RLU), CD80 Conc 5.0 nM (CD28; Table E21, CD80 Conc 5.0 nM): 841 RLU
B9: E35D/M47V/V68M (protein)
chain: B13 chain with Y18H, L47V, V68M, G71A

- CTLA4 MFI at 33.3 nM (huCTLA4; Table E19, 33.3 nM): 19129
- PD-L1 MFI at 33.3 nM (huPD-L1; Table E19, 33.3 nM): 11464
B10: N48K/V68M/K89N (protein)
chain: B13 chain with Y18H, D35E, L47M, N48K, V68M, G71A, K89N

- PD-L1 MFI at 33.3 nM (huPD-L1; Table E19, 33.3 nM): 3971
B11: E35D/D46V (protein)
chain: B13 chain with Y18H, D46V, L47M, G71A

- Relative Luciferase Units (RLU), CD80 Conc 5.0 nM (CD28; Table E21, CD80 Conc 5.0 nM): 671 RLU
- PD-L1 MFI at 33.3 nM (huPD-L1; Table E19, 33.3 nM): 23666
B12: M47V/N48K/V68M/K89N (protein)
chain: B13 chain with Y18H, D35E, L47V, N48K, V68M, G71A, K89N

- Relative Luciferase Units (RLU), CD80 Cone 5.0 nM (CD28; Table E12, 5.0 nM): 1427 RLU
- CTLA4 MFI at 33.3 nM (huCTLA4; Table E10, 33.3 nM): 24584
B14: E35D/M43I/M47L/L85M (protein)
chain: B13 chain with Y18H, M43I, G71A, L85M

- CTLA4 MFI at 33.3 nM (huCTLA4; Table E19, 33.3 nM): 49711
B15: D46V/M47L (protein)
chain: B13 chain with Y18H, D35E, D46V, G71A

- Fold Increase over WT CD80-IgV-Fe (CD28; Table E24, 5.0 nM): 5.4
- Relative Luciferase Units (RLU), CD80 Conc 5.0 nM (CD28; Table E24, 5.0 nM): 916 RLU
B20: H181/A26P/E35D/M47V/V68M/A71G (protein)
chain: B13 chain with Y18I, A26P, L47V, V68M

- Relative Luciferase Units (RLU), CD80 Cone 5.0 nM (CD28; Table E12, 5.0 nM): 1954 RLU
- CTLA4 MFI at 33.3 nM (huCTLA4; Table E10, 33.3 nM): 20576
B21: E35D/M47L/A71G (protein)
chain: B13 chain with Y18H
